Source: publication PMC4517176

How the values were obtained:
[1] = molecular target: nPTEN-GFP (expressed in HEK293) (human) (UniProt P60484); experiment: co-IP; PTEN-GFP constructs from HEK293 lysates held on anti-GFP beads (two hours), then 400 ul whole-cell lysate of HEK293 expressing HA-NEDD4-1 added for three hours; three washes; blots with anti-GFP and anti-HA; band intensity quantified (n = 3)
[2] = molecular target: ePTEN-GFP (expressed in HEK293) (human) (UniProt P60484); experiment: as above

With “HA-NEDD4-1 (from UniProt P46934 1-1319) (enzyme)” the increase of co-precipitated NEDD4-1 against GFP alone and wild-type PTEN-GFP [1] was 2.5 and the increase of co-precipitated NEDD4-1 against GFP alone and wild-type PTEN-GFP [2] was 2.5.
